EC50 data for three molecules are collected here from patent US20260191982A1 (GENOME, published 2026).

Test [1] deals with T1, human BCAM recombinant protein (SinoBiological, USA) (human, UniProt P50895 32-547).
T1 construct: Bought protein; In the sandwich ELISA it was captured by a coated anti-His antibody, which implies a His tag; also called recombinant human BCAM protein; basal cell adhesion molecule
T1 sequence (looked up): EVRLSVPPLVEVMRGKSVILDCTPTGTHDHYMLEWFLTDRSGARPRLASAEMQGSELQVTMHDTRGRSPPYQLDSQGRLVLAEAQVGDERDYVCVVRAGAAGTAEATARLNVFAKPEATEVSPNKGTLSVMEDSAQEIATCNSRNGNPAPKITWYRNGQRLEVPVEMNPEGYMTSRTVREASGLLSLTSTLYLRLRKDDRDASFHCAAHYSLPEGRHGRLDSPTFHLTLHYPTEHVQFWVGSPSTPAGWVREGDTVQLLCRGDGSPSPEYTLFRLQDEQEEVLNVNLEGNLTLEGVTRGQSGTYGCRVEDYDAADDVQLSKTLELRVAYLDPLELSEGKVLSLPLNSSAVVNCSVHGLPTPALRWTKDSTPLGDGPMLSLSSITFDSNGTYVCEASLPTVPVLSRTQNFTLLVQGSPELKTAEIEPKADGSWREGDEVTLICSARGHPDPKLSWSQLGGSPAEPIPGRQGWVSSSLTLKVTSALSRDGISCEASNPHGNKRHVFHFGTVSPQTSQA
Description: indirect ELISA, human BCAM coated on plate at 25 nM, anti-human IgG Fc-HRP detection. As for the experimental part: The binding affinity of Ab1 and Ab2 to human BCAM recombinant protein was evaluated using an indirect ELISA (Enzyme-Linked Immunosorbent Assay) method. Human BCAM (SinoBiological, USA) diluted in PBS to 25 nM, and 50 μL of prepared proteins was added to 96-well half plate (Costar, USA) and incubated overnight at 4° C. Next day, solution containing human BCAM was removed, and the plate was washed 3 times with 150 μL of PBS-T (0.1% Tween-20 in PBS). The plate coated with human BCAM was blocked with 150 μL of 3% BSA blocking buffer for 1 hr at 37° C. Blocking buffer was removed, and 50 μL of Ab1 and Ab2 (6 pM~1 μM, serial 3-fold dilution, 12 points), and HG4K IgG4 (SinoBiological, USA) and HG1K IgG1 (SinoBiological, USA) diluted with blocking buffer was added to each well and incubated for 2 hr at 37° C. The plate was washed 3 times with 150 μL of PBS-T, and secondary antibody (HRP-conjugated anti-human IgG Fc antibody; ThermoFisher Scientific, USA) diluted with blocking buffer (1:100,000) was added to each well and incubated for 1 hr at 37° C. […] The absorbance (Optical density at 450 nm, OD₄₅₀) was measured at 450 nm using Synergy H1 (BioTek, Winooski, VT). The graphs were generated as sigmoidal dose-response curves and EC₅₀ values were determined by nonlinear regression with a four-parameter logistic equation using GraphPad Prism software (GraphPad Software Inc., San Diego, CA, USA).

Test [2] deals with T2, human BCAM overexpressed on HEK293FT cells (HEK293FT/hBCAM) (human, UniProt P50895 32-628).
T2 construct: whole, on cells; also called HEK293FT/hBCAM cells; BCAM-overexpressing HEK293 cells
T2 sequence (looked up): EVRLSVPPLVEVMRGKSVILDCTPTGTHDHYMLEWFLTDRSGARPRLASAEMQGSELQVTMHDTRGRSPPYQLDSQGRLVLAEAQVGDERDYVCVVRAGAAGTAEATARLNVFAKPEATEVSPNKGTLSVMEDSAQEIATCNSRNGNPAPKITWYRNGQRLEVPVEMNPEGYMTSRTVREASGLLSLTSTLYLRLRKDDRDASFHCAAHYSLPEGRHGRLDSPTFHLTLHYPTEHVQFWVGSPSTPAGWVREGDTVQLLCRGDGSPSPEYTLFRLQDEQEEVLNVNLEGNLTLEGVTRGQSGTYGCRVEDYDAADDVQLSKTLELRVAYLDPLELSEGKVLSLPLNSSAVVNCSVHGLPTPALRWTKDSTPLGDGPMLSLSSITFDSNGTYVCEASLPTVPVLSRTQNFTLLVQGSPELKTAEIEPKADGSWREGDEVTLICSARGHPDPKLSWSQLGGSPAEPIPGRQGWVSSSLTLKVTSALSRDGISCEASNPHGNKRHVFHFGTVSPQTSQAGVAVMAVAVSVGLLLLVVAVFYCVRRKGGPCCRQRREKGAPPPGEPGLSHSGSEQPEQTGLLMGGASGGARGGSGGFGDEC
Description: flow cytometry on HEK293FT cells overexpressing human BCAM, geometric MFI. As for the experimental part: The binding affinity of Ab1, Ab2 and Ab3 to HEK293FT cells overexpressing human BCAM (HEK293FT/hBCAM) was evaluated by flow cytometry analysis. HEK293FT cells (3.0×10⁶) were seeded to 10 cm cell culture dish and incubated for […], 5% CO₂ incubator. The next day, jetPRIME transfection reagent (20 μL) and human BCAM expression plasmid (10 μg) prepared in jetPRIME transfection buffer (200 μL) were mixed and incubated for 10 min at room temperature. The mixture was added to HEK293FT cells drop-wisely and incubated for 4 hr at 37° C., 5% CO₂ incubator. After 4 hr, the mixture from HEK293FT cells was replaced with fresh complete media and incubated for overnight. HEK293FT/hBCAM cells prepared at 1.0×10⁵ cells/100 μL in FACS buffer. The 100 μL of Ab1, Ab2 (3 pM~56 nM, serial 3-fold dilution, 10 points) and Ab3 (1.524 pM~30 nM, serial 3-fold dilution, 10 points), and HG4K IgG4 (SinoBiological, USA) and HG1K IgG1 (SinoBiological, USA) diluted with FACS buffer was added to cells and incubated for 30 min at 4° C. The cells were washed twice with 200 μL of FACS buffer, and then 1 μg/mL of secondary antibody (AlexaFlour® 647 AffiniPure Goat Anti-Human IgG (H+L), JacksonImmunoResearch, USA) diluted with FACS buffer was added to cells and incubated for 30 min at 4° C. in the dark. After washing twice with 200 μL of FACS buffer, and 7-AAD diluted with FACS buffer (1:100) was added to cells and transferred to FACS tubes for analysis. At least 1.0×10⁴ live cells per sample were read using FACSCantoII (BD, USA). The geometric mean fluorescence intensity for assessing the Ab1, Ab2 and Ab3 binding to hBCAM on HEK293FT/hBCAM cells was measured. The graphs were generated as sigmoidal dose-response curves and EC₅₀ values were determined by nonlinear regression with a four-parameter logistic equation using GraphPad Prism software (GraphPad Software Inc., San Diego, CA, USA). […] See FIGS. 20a and 20b and Table 1D and 1E.
(Flow cytometry measures light scatter and fluorescence of single cells or particles in a stream.)

Test [3] has as its target T1, human BCAM recombinant protein …. In words: sandwich ELISA, human BCAM captured by coated anti-His antibody, anti-human IgG Fc-HRP detection. How it is done:
The binding affinity of Ab1 and Ab3 to human BCAM recombinant protein was evaluated using sandwich ELISA (Enzyme-Linked Immunosorbent Assay) method. Anti-His antibody (Biolegend, USA) diluted in PBS to 4 μg/mL was added to 96-well plate (ThermoFisher Scientific, USA) and incubated overnight at 4° C. Next day, solution containing anti-his antibody was removed, and the plate was washed 3 times with 300 μL of PBS-T (0.1% Tween-20 in PBS). The plate coated with anti-his antibody was blocked with 300 μL of 3% skim milk blocking buffer for 1 hr at room temperature. Human BCAM (SinoBiological, USA) diluted in blocking buffer to 25 nM, and 100 μL of prepared proteins was added to 96-well plate and incubated for 1 hr at room temperature. The plate was washed 3 times with 300 μL of PBS-T, and 100 μL of Ab1 and Ab3 (6.4 pM~500 nM, serial 5-fold dilution, 8 points) diluted with blocking buffer was added to each well and incubated for 1 hr at room temperature. […] The absorbance (Optical density at […]) was measured at 450 nm using Synergy H1 (BioTek, Winooski, VT). The graphs were generated as sigmoidal dose-response curves and EC₅₀ values were determined by nonlinear regression with a three-parameter logistic equation using GraphPad Prism software (GraphPad Software Inc., San Diego, CA, USA).
In general terms: ELISA stands for enzyme-linked immunosorbent assay.

Values joined by “and” are separate entries in the source; they are usually repeats but may differ in a detail not shown here. Equal values may be shown once.

B1: Ab1 (anti-BCAM antibody, human IgG4 S228P isotype) (antibody)
heavy: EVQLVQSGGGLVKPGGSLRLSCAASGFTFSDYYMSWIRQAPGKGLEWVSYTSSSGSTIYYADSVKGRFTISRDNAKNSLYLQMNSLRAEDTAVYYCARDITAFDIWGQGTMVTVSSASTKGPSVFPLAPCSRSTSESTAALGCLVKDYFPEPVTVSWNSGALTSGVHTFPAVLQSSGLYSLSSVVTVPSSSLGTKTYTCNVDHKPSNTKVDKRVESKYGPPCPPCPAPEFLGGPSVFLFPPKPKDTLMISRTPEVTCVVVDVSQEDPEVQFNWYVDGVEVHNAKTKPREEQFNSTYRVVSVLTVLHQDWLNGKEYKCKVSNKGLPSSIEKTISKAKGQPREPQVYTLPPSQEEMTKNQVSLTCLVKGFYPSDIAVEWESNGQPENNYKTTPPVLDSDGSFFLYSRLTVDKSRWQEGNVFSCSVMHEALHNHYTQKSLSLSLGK
light: LPVLTQPPSASGSPGQSVTISCTGTSSDVGGYNYVSWYQQHPGKAPKLMIYEVNKRPSGVPDRFSGSKSGNTASLTVSGLQAEDEADYYCCSYAGSNNYVFGTGTKVTVLGQPKAAPSVTLFPPSSEELQANKATLVCLISDFYPGAVTVAWKADSSPVKAGVETTTPSKQSNNKYAASSYLSLTPEQWKSHRSYSCQVTHEGSTVEKTVAPTECS
notes: human IgG4 S228P isotype, lambda light chain; expressed in ExpiCHO-S cells
With B1, the EC50 (in general, the midpoint of the concentration-response curve) is 0.112 nM in test [1]; 0.184 nM and 0.027 µg/mL in test [2]; 1.28 nM and 0.192 µg/mL in test [3].

B2: Ab2 (anti-BCAM antibody, human IgG1 isotype) (antibody)
heavy: not shown
light: LPVLTQPPSASGSPGQSVTISCTGTSSDVGGYNYVSWYQQHPGKAPKLMIYEVNKRPSGVPDRFSGSKSGNTASLTVSGLQAEDEADYYCCSYAGSNNYVFGTGTKVTVLGQPKAAPSVTLFPPSSEELQANKATLVCLISDFYPGAVTVAWKADSSPVKAGVETTTPSKQSNNKYAASSYLSLTPEQWKSHRSYSCQVTHEGSTVEKTVAPTECS
notes: human IgG1 isotype
Regarding B2, the EC50 in test [1] is 0.078 nM; in test [2], 0.232 nM and 0.034 µg/mL.

B3: Ab3 (anti-BCAM antibody, human IgG1 LALA isotype) (antibody)
heavy: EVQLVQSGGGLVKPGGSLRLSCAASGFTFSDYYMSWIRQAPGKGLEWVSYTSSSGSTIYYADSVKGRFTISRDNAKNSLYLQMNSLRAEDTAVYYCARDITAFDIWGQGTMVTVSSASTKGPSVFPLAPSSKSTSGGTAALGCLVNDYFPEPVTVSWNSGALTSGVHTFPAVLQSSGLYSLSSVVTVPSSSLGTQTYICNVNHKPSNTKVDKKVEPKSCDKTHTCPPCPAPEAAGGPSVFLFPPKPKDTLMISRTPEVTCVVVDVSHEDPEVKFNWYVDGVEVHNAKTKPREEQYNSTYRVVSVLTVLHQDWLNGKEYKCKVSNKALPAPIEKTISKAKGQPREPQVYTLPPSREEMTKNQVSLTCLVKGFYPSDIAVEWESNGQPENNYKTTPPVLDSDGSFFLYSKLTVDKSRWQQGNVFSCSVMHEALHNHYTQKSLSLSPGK
light: LPVLTQPPSASGSPGQSVTISCTGTSSDVGGYNYVSWYQQHPGKAPKLMIYEVNKRPSGVPDRFSGSKSGNTASLTVSGLQAEDEADYYCCSYAGSNNYVFGTGTKVTVLGQPKAAPSVTLFPPSSEELQANKATLVCLISDFYPGAVTVAWKADSSPVKAGVETTTPSKQSNNKYAASSYLSLTPEQWKSHRSYSCQVTHEGSTVEKTVAPTECS
notes: human IgG1 LALA isotype
For B3, the EC50 in test [2] was 0.167 nM and 0.025 µg/mL; in test [3], 1.31 nM and 0.197 µg/mL.
